In US20060014712A1 (CeMines, Inc., published 2006):
Like-named read-outs stand apart in the source and are kept apart here.

B1: STAT3-int1M (peptide)
peptide: TTGGSSPQGLEAKRPKKRKVRRRKMQQLEQMLTALDQMRRSIVSELAGLLS
B2: SOX10-int1 (peptide)
peptide: RPKKRKVRRRVKRPMNAFMVWAQAARRKLADQY
B3: Scr-int1M (peptide)
peptide: TTGGSSPQGLEAKRPKKRKVRRRQLMLEPYALDMSRIRVLSESLGLATQSG
B4: Scr-int1 (peptide)
peptide: RPKKRKVRRRQLMLEPYALDMSRIRVLSESLGLATQSG
B5: MITF-int1M (peptide)
peptide: TTGGSSPQGLEAKRPKKRKVRRRFNINDRIKELGTLIPKSNDPDMRWN
B6: SOX10-int1M (peptide)
peptide: TTGGSSPQGLEAKRPKKRKVRRRVKRPMNAFMVWAQAARRKLADQY

Tests used:
Assay in all cases: cell-based or functional assay
STAT3 [1] = molecular target: T1, STAT3 (Homo sapiens (Human), UniProt P40763)
SOX10 [2] = molecular target: T2, SOX10 (Homo sapiens (Human), UniProt P56693)
MITF [3] = molecular target: T3, MITF (Homo sapiens (Human), UniProt O75030-9)
SOX10 [4] = molecular target: T2, SOX10; remark: listed apart in the source
STAT3 [5] = molecular target: T1, STAT3; remark: listed apart in the source
MITF [6] = molecular target: T3, MITF; remark: listed apart in the source

Binder | Apoptosis 7 d/% in SK-MEL-28 (STAT3 [1]) | Apoptosis 7 d/% in SK-MEL-28 (SOX10 [2]) | Apoptosis 7 d/% in SK-MEL-28 (MITF [3]) | Apoptosis 7 d/% in SK-MEL-28 (SOX10 [4]) | also measured
B1 | 12% |  |  |  | 
B2 |  | 55% |  |  | 
B3 | 0% |  | 0% | 0% | 
B4 |  | 0% |  |  | Apoptosis 7 d/% in SK-MEL-28 (STAT3 [5]): 0%; Apoptosis 7 d/% in SK-MEL-28 (MITF [6]): 0%
B5 |  |  | 20% |  | 
B6 |  |  |  | 32% | 
